# Experimental data reported in publication PMC2172285.
# Biological target: cortactin, endogenous in hE-CHO cells (hamster (endogenous in CHO))
# Assay: co-IP
substance,measurement,value
human E-cadherin stably expressed in CHO cells (hE-CHO cells) (from UniProt P12830 155-882) (receptor),percent of total cellular E-cadherin found in the cortactin immunoprecipitates,1 to 2%
